Reference: patent US10058586B2, “Use of human small leucine zipper protein in adipocyte differentiation procedure” (Korea University Research and Business Foundation, priority 2013, dated 2018)

Experiments:
[1] = system: HDAC3; assay: HDAC3 ubiquitination (Ha-UB, GST pull-down) in 293T cells; type: cell-based; conditions: ligand treated (10 nM RZD, 24 hours)
Procedure: Therefore, in order to understand a regulation mechanism of sLZIP in the PPARγ2 transcriptional activity by binding to the FABP4 promoter region, an effect of sLZIP on the interaction between PPARγ2 and HDAC3 was examined. For this purpose, 293T cells were transfected with GST-HDAC3, Myc-PPARγ2 and Flag-sLZIP, and were treated or not treated with 10 nM of RZD for 24 hours. Cell lysates were subjected to GST pull-down analysis using a glutathione 4B bead, and a protein complex was analyzed in SDS-PAGE, and then immunoblotted with anti-GST, anti-Myc and anti-Flag antibodies (FIG. 6A). GST-HDAC3, GST-PPARγ2, Myc-PPARγ2, Flag-sLZIP and Ha-UB were expressed in the 293T cells, and the cells were treated with 10 nM of RZD for 24 hours. Cell lysates were subjected to GST pull-down analysis (FIG. 6B). GST-PPARγ2 and Flag-sLZIP were expressed in the 293T cells and treated with 10 nM of RZD for 24 hours. Cell lysates were subjected to GST pull-down analysis, and a protein complex was analyzed in SDS-PAGE, and then immunoblotted with anti-PGC1α, anti-GST and anti-Flag antibodies (FIG. 6C).

[2] = system: CREB element in the FABP4 enhancer; assay: Chromatin immunoprecipitation (ChIP) with HA-sLZIP in C3H10T1/2 cells; type: cell-based; conditions: RZD treated or not
Procedure: C3H10T1/2 cells grown in a 100-mm culture dish were infected with adenovirus HA-sLZIP. After the infection, the cells remained in a growth medium until the cells reaches 100% confluence, and the medium was exchanged with a differentiation medium. The cells were washed with 1×PBS, the medium was treated with 1% formaldehyde for 10 minutes at room temperature, and then glycine was added for 5 minutes at a final concentration of 0.125 M. The cells were strapped with PBS, and centrifuged at 1000×g for 5 minutes at 4° C. ChIP analysis was performed such that anti-HA antibodies and anti-rabbit IgG serving as an internal control group were used and precipitated together with a DNA-protein complex. An enhancer region of FABP4 including a functional CREs was amplified from the prepared DNA.
A DNA binding ability of sLZIP with various elements in the FABP4 enhancer region was examined. For this purpose, recombinant His-sLZIP fusion proteins (3 μg) were incubated with γ-^32P-labeled oligonucleotide probes containing expected CREB binding elements (FIG. 7B). The γ-^32P-labeled oligonucleotide probes were incubated while an amount of purified His-sLZIPs was increased. For competition analysis, unlabeled CREB oligonucleotide probes of 100-fold excess were used and His antibodies were added to a reaction mixture on ice for additional 40 minutes (FIG. 7C). […]

[3] = Solubility of sLZIP; type: physicochemical; conditions: saline or buffer solution
[4] = molecular target: T1, PPARγ2 (Homo sapiens, UniProt P37231); assay: His pull-down of purified His-sLZIP with in vitro translated PPARγ2; type: binding; design: made in house; host or cells: PPARγ2: TNT in vitro translation system (Promega); His-sLZIP: E. coli BL21, pET-28a(+)
T1 sequence (P37231 1-505): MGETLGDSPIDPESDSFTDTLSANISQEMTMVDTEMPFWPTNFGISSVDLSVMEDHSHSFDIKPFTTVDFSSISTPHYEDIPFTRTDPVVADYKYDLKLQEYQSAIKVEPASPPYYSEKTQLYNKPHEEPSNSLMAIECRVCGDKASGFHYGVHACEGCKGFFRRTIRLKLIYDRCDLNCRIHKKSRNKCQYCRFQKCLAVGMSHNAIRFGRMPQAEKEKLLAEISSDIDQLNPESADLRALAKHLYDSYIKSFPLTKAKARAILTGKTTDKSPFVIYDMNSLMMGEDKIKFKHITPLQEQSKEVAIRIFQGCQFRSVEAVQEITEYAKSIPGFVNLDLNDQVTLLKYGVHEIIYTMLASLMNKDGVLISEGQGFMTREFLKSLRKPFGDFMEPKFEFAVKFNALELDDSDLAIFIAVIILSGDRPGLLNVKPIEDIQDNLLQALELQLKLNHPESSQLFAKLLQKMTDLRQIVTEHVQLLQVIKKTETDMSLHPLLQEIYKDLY
Procedure: sLZIP was cloned into a pET-28a(+) vector. His-sLZIP proteins were expressed in Escherichia coli (E. coli) BL21 cells using a T7 isopropyl-β-D-thiogalactopyranoside (IPTG)-inducible system. IPTG-induced cells were disrupted bysonification and cell lysates were clarified by centrifugation. His-sLZIP proteins were applied onto a nickel-nitrilotriacetic acid bead column (Bio-Rad, Richmond, Calif.). The column was washed with a great volume of a lysis buffer and 10 mM of imidazole, and eluted in a Ni-NTA elution buffer (Bio-Rad Laboratories, Hercules, Calif.). A fraction containing His-sLZIP proteins was dialyzed against 10% glycerol, and stored at −80° C. Protein purification was evaluated according to 10% SDS-PAGE/Coomassie blue staining and a purity of >98% in general was shown.
In order to examine whether the transcriptional activity of PPARγ2 is regulated by interaction with sLZIP, interaction between sLZIP and PPARγ2 was examined. […] A protein complex was analyzed in SDS-PAGE and then immunoblotted with specific antibodies (FIG. 2A). […] Proteins bound to the bead were analyzed in SDS-PAGE, and then immunoblotted with anti-PPARγ2 and anti-His antibodies (FIG. 2C). GFP-PPARγ2 and Flag-sLZIP constructs were expressed in C3H10T1/2 cells, and analyzed using mouse anti-Flag and Texas Red-labeled anti-mouse antibodies under a fluorescence microscope. […]

B1: sLZIP: human small leucine-zipper protein, isoform of LZIP, 354 amino acids, no transmembrane domain; GenBank FJ263669, SEQ ID NO: 1 (protein, listed as Homo sapiens)
chain: MELELDAGDQDLLAFLLEESGDLGTAPDEAVRAPLDWALPLSEVPSDWEVDDLLCSLLSPPASLNILSSSNPCLVHHDHTYSLPRETVSMDLESESCRKEGTQMTPQHMEELAEQEIARLVLTDEEKSLLEKEGLILPETLPLTKTEEQILKRVRRKIRNKRSAQESRRKKKVYVGGLESRVLKYTAQNMELQNKVQLLEEQNLSLLDQLRKLQAMVIEISNKTSSSSMYSSDTRGSLPAEHGVLSRQLRALPSEDPYQLELPALQSEVPKDSTHQWLDGSDCVLQAPGNTSCLLHYMPQAPSAEPPLEWPFPDLFSEPLCRGPILPLQANLTRKGGWLPTGSPSVILQDRYSG
In the case of B1, the HDAC3 ubiquitination [1] is reported as “inhibited HDAC3 ubiquitination”, the “recruitment to CREB element in the FABP4 enhancer (ChIP)” value [2] is reported as “gathered in the CREB element in the FABP4 enhancer” and the solubility [3] is reported as “very soluble in a saline or a buffer solution”. The “direct interaction with PPARγ2 (His pull-down)” value [4] was “PPARγ2 was directly bound to sLZIP”.
